According to patent US20260151519A1 (AKTIS ONCOLOGY, published 2026):
Bridges are numbered along the chain shown (N, C = ends). Primed or numbered codes have the meaning given here. Where no end group is shown, it is not given here. The star is where a group is joined. Biotin = O=C1N[C@H]2[C@H](CS[C@H]2CCCCC(=O)*)N1; PEG4″ = 4(ethylene glycol)

T1: Human Nectin-4 (human, UniProt Q96NY8 32-349, limits assumed)
T1 construct: Protein immobilised on the SPR chip; also called target protein
T1 sequence: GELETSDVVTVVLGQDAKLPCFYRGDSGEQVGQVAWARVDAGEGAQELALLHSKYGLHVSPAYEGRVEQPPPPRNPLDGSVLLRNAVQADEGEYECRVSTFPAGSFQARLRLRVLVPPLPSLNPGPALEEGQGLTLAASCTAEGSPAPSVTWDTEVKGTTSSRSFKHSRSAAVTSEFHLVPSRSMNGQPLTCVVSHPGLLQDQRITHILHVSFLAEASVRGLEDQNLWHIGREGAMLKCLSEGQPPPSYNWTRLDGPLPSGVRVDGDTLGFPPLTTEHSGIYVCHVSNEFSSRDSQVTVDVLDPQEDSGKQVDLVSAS

B1: C178 (designed binder)
chain: {Biotin-PEG4″}-CEYDEEFFTALKRLRGGDICEYIQASFQYLPGLCIEEILDNLGCS-OH
modifications: disulfide 1-34, 20-44
B2: C108 (designed binder)
chain: Ac-CEYDEEFFTALKRLRGGDICYYIQASFQYLPGLCIEEILDNLGCS
modifications: disulfide 1-34, 20-44
B3: C111 (designed binder)
chain: {Biotin-PEG4″}-CEYDEEFFTALKRLRGGDICYYIQASFQYLPGLCIEEILDNLGCS
modifications: disulfide 1-34, 20-44
B4: C115 (designed binder)
chain: {Biotin-PEG4″}-CEYDEQFFTALKALRGGDICYYIQASFNYLPDLCIEEILDNLGCS
modifications: disulfide 1-34, 20-44
B5: C116 (designed binder)
chain: Ac-CEYDEEFFTALKRLRGGDICYYIQAKFQYLPKLCIEEILDNLGCS
modifications: disulfide 1-34, 20-44
B6: C119 (designed binder)
chain: {Biotin-PEG4″}-CEYDEEFFTALKRLRGGDICYYIQAKFQYLPKLCIEEILDNLGCS
modifications: disulfide 1-34, 20-44
B7: C120 (designed binder)
chain: Ac-CEYDEEFFTALKRLRGGDICYYIQKAFQYLPGLCIEEILDNLGCS
modifications: disulfide 1-34, 20-44
B8: C123 (designed binder)
chain: {Biotin-PEG4″}-CEYDEEFFTALKRLRGGDICYYIQKAFQYLPGLCIEEILDNLGCS
modifications: disulfide 1-34, 20-44
B9: C124 (designed binder)
chain: Ac-CEYDEEFFTALARLRGGDICYYIQAKFQYLPGLCIEEILDNLGCS
modifications: disulfide 1-34, 20-44
B10: C127 (designed binder)
chain: {Biotin-PEG4″}-CEYDEEFFTALARLRGGDICYYIQAKFQYLPGLCIEEILDNLGCS
modifications: disulfide 1-34, 20-44
B11: C135 (designed binder)
chain: {Biotin-PEG4″}-CEYDEEFFTALSRLRGGDICYYIQQAFQYLPGLCIEEILDNLGCS
modifications: disulfide 1-34, 20-44
B12: C140 (designed binder)
chain: {Biotin-PEG4″}-CEYDEEFFTALARLRGADICYYIQAKFQYLPGDCIEEILDNLGCS
modifications: disulfide 1-34, 20-44
B13: C141 (designed binder)
chain: {Biotin-PEG4″}-CDYDEEFFTALARLRGGDICEYIQAKFQYLPGLCIEEILDNLGCS
modifications: disulfide 1-34, 20-44
B14: C142 (designed binder)
chain: {Biotin-PEG4″}-CEYDEEFFTALARLRGGDICYYIQAKFQYLPGECIEEILQNLGCS-OH
modifications: disulfide 1-34, 20-44
B15: C144 (designed binder)
chain: {Biotin-PEG4″}-CEYDGEFFTALARLRGADICEYIQAKFQYYPGLCIEEILDNLGCS-OH
modifications: disulfide 1-34, 20-44
B16: C145 (designed binder)
chain: {Biotin-PEG4″}-CEYDEEFFTALARLRGGDICYYILAKFQYLPGECIEEILDNLGCS
modifications: disulfide 1-34, 20-44
B17: C146 (designed binder)
chain: {Biotin-PEG4″}-CEYDEQFFTALARLRGGDICEYIQAKFQYLPGLCIEEILDNLGCS
modifications: disulfide 1-34, 20-44

These binders were tested against T1, Human Nectin-4 (assay: Table 2B (DELFIA or SPR)).

Going from B1 to B2, the Kd rises from 1.4 nM to 5.78 nM (4.1-fold).

B3 and B4 are within 1.5-fold of each other in Kd: 4.32 nM for the first, 6.46 nM for the second.

B5 and B6 are within 1.5-fold of each other in Kd: 0.78 nM for the first, 0.95 nM for the second.

B7 and B8 are within 1.5-fold of each other in Kd: 2.11 nM for the first, 1.43 nM for the second.

B9 and B10 are within 1.5-fold of each other in Kd: 1.1 nM for the first, 1.27 nM for the second.

Going from B11 to B12, the Kd falls from 5.42 nM to 1.1 nM (4.9-fold).

B13 and B14 are within 1.5-fold of each other in Kd: 0.64 nM for the first, 0.81 nM for the second.

Compared with B15, B16 is 2.8-fold lower in Kd: 3.7 nM for the first, 1.3 nM for the second. The second binds more tightly here.

B17 was tested, and the Kd was 0.54 nM.
